This assay addresses HVEM expressed on cell lines (KTPloCD86A2 HVEM; K562CD19/HVEM) (UniProt Q92956). Nature of the assay: cell-based or functional assay. To be noted: scale: times higher than CD19-28z electroporated T cells.
UniProt Q92956, sequence (Q92956 39-283 limits assumed): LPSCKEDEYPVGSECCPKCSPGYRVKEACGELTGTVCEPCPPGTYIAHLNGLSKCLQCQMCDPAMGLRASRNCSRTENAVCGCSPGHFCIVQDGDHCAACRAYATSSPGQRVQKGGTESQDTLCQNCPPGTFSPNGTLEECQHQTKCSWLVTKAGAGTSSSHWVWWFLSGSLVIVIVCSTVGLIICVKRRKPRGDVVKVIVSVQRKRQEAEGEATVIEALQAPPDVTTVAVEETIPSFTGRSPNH

Consider BTLA-CD28 CCR (receptor), for which the IL-2 production (ELISA) of T cells co-electroporated with CD19z and BTLA-CD28 CCR was 4.

The record behind these values is patent US20260022155A1.
